Legend:
[1] = target: GFP-tagged Plasmepsin V (PmV-GFP), P. falciparum clone DC6 (Plasmodium falciparum)
[2] = target: GFP-tagged Plasmepsin V (PmV-GFP), P. falciparum clone DC6 (Plasmodium falciparum); assay: enzyme inhibition (fluorogenic substrate cleavage), Ki calculated from IC50; bead-bound PmV-GFP at <=10 pM, 3 uM DABCYL-[…]-EDANS substrate, serial dilution of inhibitor 10 uM to 0.1 pM, 37 C, 50 mM Tris-Maleate pH 6.5, 50 mM NaCl, 0.05% TX-100, 2 mM DTT; Ki from IC50 = Ki (1 + [S]/KM)

GFP-tagged Plasmepsin V (PmV-GFP), P. falciparum clone DC6 (Plasmodium falciparum), sequence (Q8I6Z5 whole entry): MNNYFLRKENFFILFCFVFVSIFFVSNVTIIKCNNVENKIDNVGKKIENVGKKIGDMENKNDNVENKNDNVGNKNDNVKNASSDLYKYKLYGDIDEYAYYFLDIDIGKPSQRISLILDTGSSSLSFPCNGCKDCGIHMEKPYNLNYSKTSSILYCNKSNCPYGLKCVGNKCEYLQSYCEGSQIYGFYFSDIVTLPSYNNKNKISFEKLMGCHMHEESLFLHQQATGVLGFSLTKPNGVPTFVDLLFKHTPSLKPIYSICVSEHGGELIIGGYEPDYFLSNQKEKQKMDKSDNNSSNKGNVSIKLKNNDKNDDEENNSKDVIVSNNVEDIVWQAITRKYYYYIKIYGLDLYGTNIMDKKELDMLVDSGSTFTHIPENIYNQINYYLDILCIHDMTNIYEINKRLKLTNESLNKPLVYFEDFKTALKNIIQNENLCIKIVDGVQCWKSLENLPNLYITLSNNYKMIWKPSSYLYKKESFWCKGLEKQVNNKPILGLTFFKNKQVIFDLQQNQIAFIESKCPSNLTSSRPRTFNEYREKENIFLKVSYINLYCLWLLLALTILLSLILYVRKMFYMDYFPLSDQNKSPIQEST

## Compound 1 (LG20), RL[L~A]EA (peptide)
[1]
  IC50 of inhibition of PmV cleavage of the fluorogenic HRPII-PExEl substrate (enzyme pre-mixed with inhibitor): 0.367 nM
  IC50 of inhibition of PmV cleavage of the fluorogenic HRPII-PExEl substrate (inhibitor added after the reaction was initiated): 0.329 nM
[2]
  Ki: 0.197 nM
